The values that follow come from publication PMC8934638, “H3K36 methylation and DNA-binding both promote Ioc4 recruitment and Isw1b remodeler function”.

Data set [1] concerns Isw1b complex (Isw1, Ioc2, Ioc4) (Saccharomyces cerevisiae). In words: EMSA. To be noted: peptide-ligated H3 (T45C), 5% native PAGE (37.5:1) in 0.4x TBE, 2% glycerol, binding buffer, pH and temperature not given (as in …). On the technique in general: In EMSA bound probe runs differently from free probe, usually more slowly.
The target of data set [2] is T1, Ioc4 PWWP domain (Saccharomyces cerevisiae, UniProt Q04213 1-178).
T1 sequence: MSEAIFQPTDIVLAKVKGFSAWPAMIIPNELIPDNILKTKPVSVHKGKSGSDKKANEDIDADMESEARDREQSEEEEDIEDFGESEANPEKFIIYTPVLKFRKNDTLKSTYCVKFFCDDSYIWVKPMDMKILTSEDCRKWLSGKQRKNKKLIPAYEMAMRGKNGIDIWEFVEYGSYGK
The data set is described as follows: EMSA. The note with it: 5% native PAGE (37.5:1) in 0.4x TBE, 2% glycerol, binding buffer, pH and temperature not given (as in …).

The target in data set [3] is T2, Ioc4 full-length (Saccharomyces cerevisiae, UniProt Q04213 1-475).
T2 sequence: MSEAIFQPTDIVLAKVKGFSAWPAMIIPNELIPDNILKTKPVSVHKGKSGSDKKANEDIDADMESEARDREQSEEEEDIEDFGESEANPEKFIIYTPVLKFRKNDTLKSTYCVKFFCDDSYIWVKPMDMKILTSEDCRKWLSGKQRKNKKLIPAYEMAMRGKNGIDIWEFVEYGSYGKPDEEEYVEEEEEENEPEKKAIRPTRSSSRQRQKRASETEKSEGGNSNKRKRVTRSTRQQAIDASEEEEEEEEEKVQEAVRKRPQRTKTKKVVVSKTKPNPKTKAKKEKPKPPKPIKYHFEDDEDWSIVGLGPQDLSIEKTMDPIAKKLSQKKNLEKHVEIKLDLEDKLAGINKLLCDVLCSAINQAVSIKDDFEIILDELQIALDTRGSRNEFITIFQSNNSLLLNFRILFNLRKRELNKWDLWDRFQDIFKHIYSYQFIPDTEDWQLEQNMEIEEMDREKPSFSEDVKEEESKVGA
The data set is described as follows: EMSA. The note with it: 5% native PAGE (37.5:1) in 0.4x TBE, 2% glycerol, binding buffer, pH and temperature not given (as in …).

Data set [4] has as its target T1, Ioc4 PWWP domain. In words: EMSA; EMSA; 15 fmol NCP (30 fmol unmodified NCP) per reaction; 5% native PAGE (37.5:1) in 0.4x TBE, 2% glycerol; binding buffer, pH and temperature not given (as in cited work). To be noted: protein: recombinant; tags: N-terminal 6xHis; label: Cy5 on sense strand; blunt.
Data set [5] deals with T2, Ioc4 full-length. Described as above. The note with it: protein: recombinant; tags: N-terminal 6xHis-MBP; label: Cy5 on sense strand; blunt.
The target of data set [6] is T1, Ioc4 PWWP domain. The data set is described as follows: EMSA; bound equally to the AT-rich substrate; EMSA; 15 fmol NCP (30 fmol unmodified NCP) per reaction; 5% native PAGE (37.5:1) in 0.4x TBE, 2% glycerol; binding buffer, pH and temperature not given (as in cited work). To be noted: protein: recombinant; tags: N-terminal 6xHis; label: Cy5 on sense strand; blunt.

[7] abbreviates: peptide-ligated H3 (T45C), K36me0, 15 fmol NCP (30 fmol unmodified NCP) per reaction.
Setting [8] is: peptide-ligated H3 (T45C), K36me3, 15 fmol NCP (30 fmol unmodified NCP) per reaction.
Setting [9] is: 15 fmol NCP (30 fmol unmodified NCP) per reaction.

Consider NCP H3K36me0, 147 bp 601, for which the Kd (as a rule, the free concentration of one partner at which half of the binding sites on the other are occupied at equilibrium, for simple one-to-one binding) in data set [1] (K36me0, 15 fmol NCP (30 fmol unmodified NCP) per reaction) is 57.3 nM; with Ioc4 PWWP domain [2] (setting [7]), 400 nM; with Ioc4 full-length [3] (setting [7]), 11 nM.

For NCP H3K36me3, 147 bp 601, the Kd in data set [1] (K36me3, 15 fmol NCP (30 fmol unmodified NCP) per reaction) was 4.8 nM; with Ioc4 PWWP domain [2] (setting [8]), 120 nM; with Ioc4 full-length [3] (setting [8]), 6.7 nM.

In the data set with Ioc4 PWWP domain [2] (unmodified histones, 15 fmol NCP (30 fmol unmodified NCP) per reaction), NCP unmodified, 147 bp 601 registered a Kd of 450 nM.

For the molecule RNA:DNA hybrid, the figures for the Kd in the data set with Ioc4 PWWP domain [2] (setting [9]) and with Ioc4 full-length [3] (setting [9]) were 760 nM and 55 nM, respectively.

B1: dsDNA 30 bp (601-derived EMSA probe) (dsDNA)
DNA 1: GGCAAGGTCGCTGTTCAATACATGCACAGG
DNA 2: CCTGTGCATGTATTGAACAGCGACCTTGCC
With B1, the dissociation constant (Kd) with Ioc4 PWWP domain [4] worked out at 810 nM; with Ioc4 full-length [5] it was 34 nM.

B2: dsRNA 30 bp (AT rich) (dsRNA)
RNA 1: GGCAAGGUCGCUGUUCAAUACAUGCACAGG
RNA 2: CCUGUGCAUGUAUUGAACAGCGACCUUGCC
Regarding B2, the Kd in the data set with Ioc4 PWWP domain [4] stood at 1800 nM; with Ioc4 full-length [5] it was 56 nM.

B3: dsRNA 25 bp GC rich (dsRNA)
RNA 1: CCCGGUGCCGAGGCCGCUCAAUUGG
RNA 2: CCAAUUGAGCGGCCUCGGCACCGGG
For B3, the binding result in the data set with Ioc4 PWWP domain [6] is listed as “binds”.
